Assay results taken from IntAct's records for PubMed 23756461.

B1: Cell division protein FtsZ (Escherichia coli (strain K12)), P0A9A6 (parent)
chain: MFEPMELTNDAVIKVIGVGGGGGNAVEHMVRERIEGVEFFAVNTDAQALRKTAVGQTIQIGSGITKGLGAGANPEVGRNAADEDRDALRAALEGADMVFIAAGMGGGTGTGAAPVVAEVAKDLGILTVAVVTKPFNFEGKKRMAFAEQGITELSKHVDSLITIPNDKLLKVLGRGISLLDAFGAANDVLKGAVQGIAELITRPGLMNVDFADVRTVMSEMGYAMMGSGVASGEDRAEEAAEMAISSPLLEDIDLSGARGVLVNITAGFDLRLDEFETVGNTIRAFASDNATVVIGTSLDPDMNDELRVTVVATGIGMDKRPEITLVTNKQVQQPVMDRYQQHGMAPLTQEQKPVAKVVNDNAPQTAKEPDYLDIPAFLRKQAD
B2: Cell shape-determining protein MreB (Escherichia coli (strain K12)), P0A9X4 (parent)
chain: MLKKFRGMFSNDLSIDLGTANTLIYVKGQGIVLNEPSVVAIRQDRAGSPKSVAAVGHDAKQMLGRTPGNIAAIRPMKDGVIADFFVTEKMLQHFIKQVHSNSFMRPSPRVLVCVPVGATQVERRAIRESAQGAGAREVFLIEEPMAAAIGAGLPVSEATGSMVVDIGGGTTEVAVISLNGVVYSSSVRIGGDRFDEAIINYVRRNYGSLIGEATAERIKHEIGSAYPGDEVREIEVRGRNLAEGVPRGFTLNSNEILEALQEPLTGIVSAVMVALEQCPPELASDISERGMVLTGGGALLRNLDRLLMEETGIPVVVAEDPLTCVARGGGKALEMIDMHGGDLFSEE

Variants of: B1
Conditions: with mreb_ecoli mreB

Row | Variant | effect of a mutation on the interaction
1 | MFEPMELTNDAVIKVIGVGGGGGNAVEHMVRERIEGVEFFAVNTDAQALRKTAVGQTIQIGSGITKGLGAGANPEVGRNAADEDRDALRAALEGADMVFIAAGMGGGTGTGAAPVVAEVAKDLGILTVAVVTKPFNFEGKKRMAFAEQGITELSKHVDSLITIPNDKLLKVLGRGISLLDAFGAANDVLKGAVQGIAELITRQGLMNVDFADVRTVMSEMGYAMMGSGVASGEDRAEEAAEMAISSPLLEDIDLSGARGVLVNITAGFDLRLDEFETVGNTIRAFASDNATVVIGTSLDPDMNDELRVTVVATGIGMDKRPEITLVTNKQVQQPVMDRYQQHGMAPLTQEQKPVAKVVNDNAPQTAKEPDYLDIPAFLRKQAD [P203Q] | disrupting interaction

Variants of: B2
Conditions: with ftsz_ecoli ftsZ

Row | Variant | effect of a mutation on the interaction
2 | D285A | disrupting interaction
